Data taken from patent publication US20080044360A1 (COLLAGEN MEDICAL, published 2008).
Bridge positions count the residues as written; N and C are the ends. Square brackets hold non-standard residues; d marks the D form. Primed or numbered codes have the meaning given here. Side chains are listed from the residue outwards. Ends that are not written are not given here. * marks the point of attachment. Tyr(3-Cl) = N[C@@H](Cc1ccc(O)c(Cl)c1)C(=O)O; Phe(3-OMe) = COc1cccc(C[C@H](N)C(=O)O)c1; Phe(4-F) = N[C@@H](Cc1ccc(F)cc1)C(=O)O; Dmt = Cc1cc(O)cc(C)c1C[C@H](N)C(=O)O; hTyr = N[C@@H](CCc1ccc(O)cc1)C(=O)O; NMeA = CN[C@@H](C)C(=O)O; Gd^T″ = GdDTPA-thiourea; Cbz = O=C(OCc1ccccc1)*

What follows are binders tested against T1, human collagen type I, acid soluble, extracted from placenta (Sigma C7774) (human, UniProt P02452 162-1218; P08123 80-1119) (assay: dried collagen assay).
T1 construct: tissue extract, gelled and dried in wells; also called dried human collagen; h-Collagen
T1 sequence (P02452 162-1218 limits assumed, chain 1 of 2): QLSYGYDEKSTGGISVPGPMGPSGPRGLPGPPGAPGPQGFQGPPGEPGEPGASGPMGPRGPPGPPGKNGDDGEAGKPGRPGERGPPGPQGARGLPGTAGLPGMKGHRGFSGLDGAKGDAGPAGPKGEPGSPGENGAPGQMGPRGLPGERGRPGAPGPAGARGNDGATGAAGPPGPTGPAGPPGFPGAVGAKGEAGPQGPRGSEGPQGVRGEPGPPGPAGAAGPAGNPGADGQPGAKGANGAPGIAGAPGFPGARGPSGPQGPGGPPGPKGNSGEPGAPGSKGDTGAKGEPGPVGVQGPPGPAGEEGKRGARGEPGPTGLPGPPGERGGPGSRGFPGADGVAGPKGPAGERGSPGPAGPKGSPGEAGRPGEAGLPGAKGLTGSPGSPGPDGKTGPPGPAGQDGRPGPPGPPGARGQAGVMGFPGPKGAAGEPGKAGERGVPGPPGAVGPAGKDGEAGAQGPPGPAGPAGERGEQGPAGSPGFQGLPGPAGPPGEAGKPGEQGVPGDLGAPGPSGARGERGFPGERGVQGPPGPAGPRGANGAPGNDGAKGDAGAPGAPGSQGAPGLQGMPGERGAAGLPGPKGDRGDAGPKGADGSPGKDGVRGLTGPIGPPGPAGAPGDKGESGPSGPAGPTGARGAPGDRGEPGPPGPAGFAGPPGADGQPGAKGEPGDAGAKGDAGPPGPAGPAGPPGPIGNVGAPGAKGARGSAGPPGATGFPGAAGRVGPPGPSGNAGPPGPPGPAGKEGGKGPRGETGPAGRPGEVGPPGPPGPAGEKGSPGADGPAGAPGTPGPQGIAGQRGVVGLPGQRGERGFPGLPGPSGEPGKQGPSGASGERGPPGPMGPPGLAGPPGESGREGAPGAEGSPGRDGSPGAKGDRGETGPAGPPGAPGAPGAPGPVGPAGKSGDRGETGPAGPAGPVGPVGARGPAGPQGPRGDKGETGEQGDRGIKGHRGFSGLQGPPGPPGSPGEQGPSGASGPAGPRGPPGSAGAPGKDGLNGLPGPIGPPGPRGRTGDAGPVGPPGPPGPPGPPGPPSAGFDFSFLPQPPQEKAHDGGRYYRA
T1 sequence (P08123 80-1119 limits assumed, chain 2 of 2): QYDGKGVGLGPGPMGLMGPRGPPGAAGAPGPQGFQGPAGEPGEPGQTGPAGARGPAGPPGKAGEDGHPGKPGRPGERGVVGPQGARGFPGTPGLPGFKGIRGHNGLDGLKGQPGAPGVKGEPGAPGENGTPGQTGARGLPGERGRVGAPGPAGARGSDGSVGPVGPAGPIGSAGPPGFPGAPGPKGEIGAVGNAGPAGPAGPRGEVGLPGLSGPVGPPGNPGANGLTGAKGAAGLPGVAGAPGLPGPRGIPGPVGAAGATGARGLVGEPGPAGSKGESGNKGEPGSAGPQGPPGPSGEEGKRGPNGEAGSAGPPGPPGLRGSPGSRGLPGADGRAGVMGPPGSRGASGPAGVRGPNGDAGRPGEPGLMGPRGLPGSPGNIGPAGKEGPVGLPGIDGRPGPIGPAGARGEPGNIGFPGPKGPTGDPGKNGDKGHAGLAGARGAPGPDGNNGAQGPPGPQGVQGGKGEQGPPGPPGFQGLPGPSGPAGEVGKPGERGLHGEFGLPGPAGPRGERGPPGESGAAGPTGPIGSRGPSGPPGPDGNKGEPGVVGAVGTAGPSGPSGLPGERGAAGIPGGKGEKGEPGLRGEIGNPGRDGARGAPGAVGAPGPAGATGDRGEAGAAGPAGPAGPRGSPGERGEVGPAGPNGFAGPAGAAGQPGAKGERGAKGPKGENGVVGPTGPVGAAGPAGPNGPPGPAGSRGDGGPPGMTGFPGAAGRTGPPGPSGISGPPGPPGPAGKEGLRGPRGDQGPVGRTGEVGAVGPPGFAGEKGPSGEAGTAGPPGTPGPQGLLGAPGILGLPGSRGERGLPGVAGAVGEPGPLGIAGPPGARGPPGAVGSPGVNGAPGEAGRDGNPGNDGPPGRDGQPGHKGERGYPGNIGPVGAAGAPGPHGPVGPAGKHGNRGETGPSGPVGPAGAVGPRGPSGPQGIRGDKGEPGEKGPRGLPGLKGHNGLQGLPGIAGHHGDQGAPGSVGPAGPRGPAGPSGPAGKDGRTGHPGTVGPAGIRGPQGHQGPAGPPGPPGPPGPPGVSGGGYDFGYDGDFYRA

| Binder | % bound |
| --- | --- |
| Cbz-GQWHCTTK(Gd^T″)FPHHYCLYG (disulfide 5-14 (inferred)) [Compound ID 926] | 81% |
| {Gd^T″}-GQWHCTTRFPHH[Phe(3-OMe)]CLYG (disulfide 5-14 (inferred)) [Compound ID 935] | 59% |
| {Gd^T″}-GQWHCTTRFPHHYCFYG (disulfide 5-14 (inferred)) [Compound ID 931] | 70% |
| {Gd^T″}-GK([Gly-Gd^T″])WHCTTYFPHHYCVYG (disulfide 5-14 (inferred)) [Compound ID 942] | 78% |
| {Gd^T″}-GK([Gly-Gd^T″])WHCTTYFPHH[Tyr(3-Cl)]CLYG (disulfide 5-14 (inferred)) [Compound ID 952] | 52% |
| {Gd^T″}-GQWHCK(Gd^T″)TRFPHHYCLYG (disulfide 5-14 (inferred)) [Compound ID 957] | 42% |
| {Gd^T″}-GQWHCTTLFPHHYCVYG (disulfide 5-14 (inferred)) [Compound ID 928] | 73% |
| {Gd^T″}-GK([Gly-Gd^T″])WHCYTYFPYHYCVYG (disulfide 5-14 (inferred)) [Compound ID 963] | 82% |
| {Gd^T″}-GQWHCTT[Phe(4-F)]FPHHYCLYG (disulfide 5-14 (inferred)) [Compound ID 929] | 27% |
| {Gd^T″}-GK([Gly-Gd^T″])WHCTTYFPHHYCLYY (disulfide 5-14 (inferred)) [Compound ID 949] | 72% |
| {Gd^T″}-GK([Gly-Gd^T″])WHCYTYFPHHYCLYG (disulfide 5-14 (inferred)) [Compound ID 943] | 55% |
| {Gd^T″}-GQWHCTTRF[NMeA]HHYCLYG (disulfide 5-14 (inferred)) [Compound ID 938] | 16% |
| {Gd^T″}-GK([Gly-Gd^T″])WHCTTYFPYHYCLYG (disulfide 5-14 (inferred)) [Compound ID 946] | 71% |
| {Gd^T″}-GK([Gly-Gd^T″])WHCTTYFPTHYCLYG (disulfide 5-14 (inferred)) [Compound ID 962] | 20% |
| {Gd^T″}-GK([Gly-Gd^T″])WHCYTYFPHHYCVYG (disulfide 5-14 (inferred)) [Compound ID 944] | 91% |
| {Gd^T″}-GQWHCTTRFPK(Gd^T″)HYCLYG (disulfide 5-14 (inferred)) [Compound ID 958] | 45% |
| {Gd^T″}-GK([Gly-Gd^T″])WHCTTYFPHYYCLYG (disulfide 5-14 (inferred)) [Compound ID 947] | 64% |
| {Gd^T″}-GQWK(Gd^T″)CTTRFPHHYCLYG (disulfide 5-14 (inferred)) [Compound ID 956] | 39% |
| {Gd^T″}-GK([Gly-Gd^T″])WHCTTYFPHH[Dmt]CLYG (disulfide 5-14 (inferred)) [Compound ID 953] | 50% |
| {Gd^T″}-GK([Gly-Gd^T″])WHCTTYFPHWYCLYG (disulfide 5-14 (inferred)) [Compound ID 948] | 25% |
| {Gd^T″}-GQWHCTTLFPHHYCIYG (disulfide 5-14 (inferred)) [Compound ID 927] | 64% |
| {Gd^T″}-GQWHCTTRFPHH[hTyr]CLYG (disulfide 5-14 (inferred)) [Compound ID 933] | 36% |
| {Gd^T″}-GK([Gly-Gd^T″])WHCTTLFPHHYCLYG (disulfide 5-14 (inferred)) [Compound ID 930] | 31% |
| {Gd^T″}-GK([Gly-Gd^T″])WHCYTYFPHHYCVYY (disulfide 5-14 (inferred)) [Compound ID 945] | 83% |
| {Gd^T″}-GQWHCYTLFPHHYCLYG (disulfide 5-14 (inferred)) [Compound ID 959] | 58% |
| {Gd^T″}-GQWHCTTRFPHHYCLYG (disulfide 5-14 (inferred); not fully specified (C-terminus)) [Compound ID 954] | 31% |
| {Gd^T″}-GK([Gly-Gd^T″])WHCYTYFPYHYCLYG (disulfide 5-14 (inferred)) [Compound ID 964] | 88% |
| {Gd^T″}-GQWHCTTRFPHH[hTyr(Me)]CLYG (disulfide 5-14 (inferred)) [Compound ID 934] | 21% |

What follows are binders tested against T2, rat collagen, acid soluble, type I, rat tail (Upstate 08-115) (rat, UniProt P02454 152-1207; P02466 86-1125) (assay: dried collagen assay).
T2 construct: tissue extract, gelled and dried in wells; also called dried rat collagen
T2 sequence (P02454 152-1207, chain 1 of 2): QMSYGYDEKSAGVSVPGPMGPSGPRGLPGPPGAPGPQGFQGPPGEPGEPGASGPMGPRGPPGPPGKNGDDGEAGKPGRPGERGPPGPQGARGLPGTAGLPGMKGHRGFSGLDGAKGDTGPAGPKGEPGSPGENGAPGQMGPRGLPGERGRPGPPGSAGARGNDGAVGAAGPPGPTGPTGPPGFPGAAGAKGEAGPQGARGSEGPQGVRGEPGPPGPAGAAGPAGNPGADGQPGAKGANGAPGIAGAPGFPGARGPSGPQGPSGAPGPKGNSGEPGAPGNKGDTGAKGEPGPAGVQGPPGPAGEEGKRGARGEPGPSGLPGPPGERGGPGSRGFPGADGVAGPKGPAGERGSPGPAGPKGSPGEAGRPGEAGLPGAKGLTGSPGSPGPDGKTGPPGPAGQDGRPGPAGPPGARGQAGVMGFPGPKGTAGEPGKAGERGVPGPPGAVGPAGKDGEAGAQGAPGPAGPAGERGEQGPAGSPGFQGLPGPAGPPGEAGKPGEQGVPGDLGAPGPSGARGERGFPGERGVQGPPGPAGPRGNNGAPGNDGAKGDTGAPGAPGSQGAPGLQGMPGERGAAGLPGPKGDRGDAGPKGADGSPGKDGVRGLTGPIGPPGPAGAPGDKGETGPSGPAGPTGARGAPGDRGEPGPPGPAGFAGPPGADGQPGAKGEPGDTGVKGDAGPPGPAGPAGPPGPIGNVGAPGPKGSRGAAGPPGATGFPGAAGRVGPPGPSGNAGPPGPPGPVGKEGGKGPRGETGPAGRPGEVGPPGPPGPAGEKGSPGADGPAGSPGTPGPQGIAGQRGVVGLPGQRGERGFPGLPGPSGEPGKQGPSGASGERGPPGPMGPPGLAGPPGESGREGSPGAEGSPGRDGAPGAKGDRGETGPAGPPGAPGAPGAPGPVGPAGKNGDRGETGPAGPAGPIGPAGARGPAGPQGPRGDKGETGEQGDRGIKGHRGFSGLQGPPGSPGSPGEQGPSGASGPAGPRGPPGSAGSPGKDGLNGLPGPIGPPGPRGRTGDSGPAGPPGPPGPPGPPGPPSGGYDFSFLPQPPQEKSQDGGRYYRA
T2 sequence (P02466 86-1125, chain 2 of 2): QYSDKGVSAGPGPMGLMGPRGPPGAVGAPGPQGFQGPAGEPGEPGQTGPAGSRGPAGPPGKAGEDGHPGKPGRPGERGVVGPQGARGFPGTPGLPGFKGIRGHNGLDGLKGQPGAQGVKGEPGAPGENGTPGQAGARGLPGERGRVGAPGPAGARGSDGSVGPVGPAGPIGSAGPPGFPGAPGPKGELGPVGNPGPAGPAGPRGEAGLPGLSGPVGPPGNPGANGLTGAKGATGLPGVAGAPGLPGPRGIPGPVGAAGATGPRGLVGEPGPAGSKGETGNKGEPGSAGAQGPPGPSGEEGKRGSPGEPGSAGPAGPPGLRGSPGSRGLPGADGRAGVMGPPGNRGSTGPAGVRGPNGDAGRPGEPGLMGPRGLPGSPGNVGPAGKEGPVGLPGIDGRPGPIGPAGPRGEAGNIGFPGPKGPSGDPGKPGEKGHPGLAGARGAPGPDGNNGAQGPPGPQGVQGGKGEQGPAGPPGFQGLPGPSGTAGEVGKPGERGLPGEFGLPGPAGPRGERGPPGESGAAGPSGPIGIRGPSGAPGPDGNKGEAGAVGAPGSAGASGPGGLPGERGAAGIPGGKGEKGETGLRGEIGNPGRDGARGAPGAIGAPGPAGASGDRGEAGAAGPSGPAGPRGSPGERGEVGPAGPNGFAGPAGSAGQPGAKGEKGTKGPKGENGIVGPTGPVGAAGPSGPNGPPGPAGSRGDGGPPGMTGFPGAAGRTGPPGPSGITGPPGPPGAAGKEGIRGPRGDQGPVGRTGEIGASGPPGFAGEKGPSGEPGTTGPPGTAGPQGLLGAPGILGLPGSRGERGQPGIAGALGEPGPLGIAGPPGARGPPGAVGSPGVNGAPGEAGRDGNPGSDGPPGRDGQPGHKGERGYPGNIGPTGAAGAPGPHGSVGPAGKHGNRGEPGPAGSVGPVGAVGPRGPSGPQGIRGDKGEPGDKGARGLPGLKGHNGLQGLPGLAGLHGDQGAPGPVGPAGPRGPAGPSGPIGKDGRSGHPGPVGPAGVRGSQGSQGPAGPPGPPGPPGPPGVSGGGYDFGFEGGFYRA

| Binder | % bound |
| --- | --- |
| Cbz-GQWHCTTK(Gd^T″)FPHHYCLYG (disulfide 5-14 (inferred)) [Compound ID 926] | 87% |
| {Gd^T″}-GQWHCTTRFPHH[Phe(3-OMe)]CLYG (disulfide 5-14 (inferred)) [Compound ID 935] | 39% |
| {Gd^T″}-GQWHCTTRFPHHYCFYG (disulfide 5-14 (inferred)) [Compound ID 931] | 83% |
| {Gd^T″}-GK([Gly-Gd^T″])WHCTTYFPHHYCVYG (disulfide 5-14 (inferred)) [Compound ID 942] | 67% |
| {Gd^T″}-GK([Gly-Gd^T″])WHCTTYFPHH[Tyr(3-Cl)]CLYG (disulfide 5-14 (inferred)) [Compound ID 952] | 72% |
| {Gd^T″}-GQWHCK(Gd^T″)TRFPHHYCLYG (disulfide 5-14 (inferred)) [Compound ID 957] | 39% |
| {Gd^T″}-GQWHCTTLFPHHYCVYG (disulfide 5-14 (inferred)) [Compound ID 928] | 80% |
| {Gd^T″}-GK([Gly-Gd^T″])WHCYTYFPYHYCVYG (disulfide 5-14 (inferred)) [Compound ID 963] | 91% |
| {Gd^T″}-GQWHCTT[Phe(4-F)]FPHHYCLYG (disulfide 5-14 (inferred)) [Compound ID 929] | 34% |
| {Gd^T″}-GK([Gly-Gd^T″])WHCTTYFPHHYCLYY (disulfide 5-14 (inferred)) [Compound ID 949] | 79% |
| {Gd^T″}-GK([Gly-Gd^T″])WHCYTYFPHHYCLYG (disulfide 5-14 (inferred)) [Compound ID 943] | 72% |
| {Gd^T″}-GQWHCTTRF[NMeA]HHYCLYG (disulfide 5-14 (inferred)) [Compound ID 938] | 13% |
| {Gd^T″}-GK([Gly-Gd^T″])WHCTTYFPYHYCLYG (disulfide 5-14 (inferred)) [Compound ID 946] | 68% |
| {Gd^T″}-GK([Gly-Gd^T″])WHCTTYFPTHYCLYG (disulfide 5-14 (inferred)) [Compound ID 962] | 10% |
| {Gd^T″}-GK([Gly-Gd^T″])WHCYTYFPHHYCVYG (disulfide 5-14 (inferred)) [Compound ID 944] | 84% |
| {Gd^T″}-GQWHCTTRFPK(Gd^T″)HYCLYG (disulfide 5-14 (inferred)) [Compound ID 958] | 33% |
| {Gd^T″}-GK([Gly-Gd^T″])WHCTTYFPHYYCLYG (disulfide 5-14 (inferred)) [Compound ID 947] | 57% |
| {Gd^T″}-GQWK(Gd^T″)CTTRFPHHYCLYG (disulfide 5-14 (inferred)) [Compound ID 956] | 15% |
| {Gd^T″}-GK([Gly-Gd^T″])WHCTTYFPHH[Dmt]CLYG (disulfide 5-14 (inferred)) [Compound ID 953] | 50% |
| {Gd^T″}-GK([Gly-Gd^T″])WHCTTYFPHWYCLYG (disulfide 5-14 (inferred)) [Compound ID 948] | 17% |
| {Gd^T″}-GQWHCTTLFPHHYCIYG (disulfide 5-14 (inferred)) [Compound ID 927] | 63% |
| {Gd^T″}-GQWHCTTRFPHH[hTyr]CLYG (disulfide 5-14 (inferred)) [Compound ID 933] | 24% |
| {Gd^T″}-GK([Gly-Gd^T″])WHCTTLFPHHYCLYG (disulfide 5-14 (inferred)) [Compound ID 930] | 42% |
| {Gd^T″}-GK([Gly-Gd^T″])WHCYTYFPHHYCVYY (disulfide 5-14 (inferred)) [Compound ID 945] | 82% |
| {Gd^T″}-GQWHCYTLFPHHYCLYG (disulfide 5-14 (inferred)) [Compound ID 959] | 68% |
| {Gd^T″}-GQWHCTTRFPHHYCLYG (disulfide 5-14 (inferred); not fully specified (C-terminus)) [Compound ID 954] | 22% |
| {Gd^T″}-GK([Gly-Gd^T″])WHCYTYFPYHYCLYG (disulfide 5-14 (inferred)) [Compound ID 964] | 86% |
| {Gd^T″}-GQWHCTTRFPHH[hTyr(Me)]CLYG (disulfide 5-14 (inferred)) [Compound ID 934] | 14% |
